“Also recorded” adds a separate entry of the source.
B1: CNTF: rat recombinant CNTF, ciliary neurotrophic factor (protein, UniProt P20294 1-200, looked up)
Ciliary neurotrophic factor: MAFAEQTPLTLHRRDLCSRSIWLARKIRSDLTALMESYVKHQGLNKNINLDSVDGVPVASTDRWSEMTEAERLQENLQAYRTFQGMLTKLLEDQRVHFTPTEGDFHQAIHTLMLQVSAFAYQLEELMVLLEQKIPENEADGMPATVGDGGLFEKKLWGLKVLQELSQWTVRSIHDLRVISSHQMGISALESHYGAKDKQM
B2: prolactin: prolactin, first infusion days 1-7, then CSF (Group 3) (protein, UniProt P01236 29-227, looked up)
Prolactin: LPICPGGAARCQVTLRDLFDRAVVLSHYIHNLSSEMFSEFDKRYTHGRGFITKAINSCHTSSLATPEDKEQAQQMNQKDFLSLIVSILRSWNEPLYHLVTEVRGMQEAPEAILSKAVEIEEQTKRLLEGMELIVSQVHPETKENEIYPVWSGLPSLQMADEESRLSAYYNLLHCLRRDSHKIDNYLKLLKCRIIHNNNC

Assays:
neural stem cells [1] = assay: Number of EGF-responsive neural stem cells (primary neurospheres) after infusion into the lateral ventricle; assay type: in vivo, mice
Excerpt: Thus, we infused either CNTF or EPO into the lateral ventricles of adult mice for six days, after which we either removed the entire adult ependyma/subependyma to examine the total number of EGF-responsive NSCs or examined the in vivo production of neuronal precursors. […] Therefore, EGF-responsive NSCs turn over continuously in vivo, a sub-population of which spontaneously differentiates into restricted glial precursors, while another sub-population is directed to the neuronal restricted linage by EPO.
The protocols for neural stem cell culture are described in detail in U.S. Pat. No. 5,750,376 or Shingo et al., 2001. Briefly, embryonic neural stem cells were prepared from E14 medial and lateral ganglionic eminences. Adult neural stem cells were prepared from the subventricular zone of adult mice. The tissue was cultured in basal medium containing 20 ng/ml EGF, or other growth factors as indicated in each case, to form neurospheres. The composition of the basal medium is as follows: DMEM/F12 (1:1); glucose (0.6%); glutamine (2 mM); sodium bicarbonate (3 mM); HEPES (5 mM); insulin (25 μg/ml); transferrin (100 μg/ml); progesterone ([…]); putrescine (60 μM); and selenium chloride (30 nM). […]

neural stem cells [2] = assay: BrdU labelling of proliferating cells in infused animals; assay type: in vivo, mice; conditions: BrdU also given to the infused animals
[3] = system: neural stem cells in the subventricular zone; assay: Subcutaneous administration, number of neural stem cells in the subventricular zone; assay type: in vivo
[4] = Forelimb inhibition test in focal ischemic injury (stroke) model; assay type: in vivo; conditions: rats with focal ischemic injury; first infusion days 1-7, second infusion days 8-14
Excerpt: Adult male Long-Evans rats (250-350 g) were obtained from Charles River Breeding Farms and were adapted to the colony for two weeks prior to any treatment. A week before surgery the rats were given a baseline testing on the behavioral tests.
The animals for the stroke study received unilateral devascularization of the sensorimotor cortex. Using Isoflurane anesthesia, the skin was incised and retracted and the overlying fascia were removed from the skull. A skull opening was made at the following coordinates, taking care not to damage the dura: AP +4.0 to −2.0; L 1.5 to 4 (the parasagittal ridge; Kolb et al., 1997). The dura was cut and retracted from the skull opening. A cotton swab soaked in sterile saline was gently rubbed across the exposed pia and the vessels were removed. A hole was then drilled in the contralateral hemisphere to provide an opening for the cannulae attached to the osmotic minipump at AP −0.5; L 1.5. […]
Six days later the animals were assessed using the behavioral test. […]
In normal rats, swimming is accomplished by propulsion from the hind limbs. […] Inhibition of the forelimbs was assessed by filming animals while swimming. […]
The animals then received various test factors, and the effects of these factors on the forelimb inhibition test and brain anatomy were assessed. […]

[5] = system: migrating neuronal progenitor cells; assay: Brain anatomical analysis (Cresyl Violet, Doublecortin) in focal ischemic injury (stroke) model; assay type: in vivo; conditions: rats with focal ischemic injury, end of week 6
Excerpt: The animals for the stroke study received unilateral devascularization of the sensorimotor cortex. Using Isoflurane anesthesia, the skin was incised and retracted and the overlying fascia were removed from the skull. A skull opening was made at the following coordinates, taking care not to damage the dura: AP +4.0 to −2.0; L 1.5 to 4 (the parasagittal ridge; Kolb et al., 1997). The dura was cut and retracted from the skull opening. A cotton swab soaked in sterile saline was gently rubbed across the exposed pia and the vessels were removed. A hole was then drilled in the contralateral hemisphere to provide an opening for the cannulae attached to the osmotic minipump at AP −0.5; L 1.5. An osmotic minipump was placed under the skin between the shoulder blades and a tube connected under the skin to the cannulae, which was attached to the skull with fast-drying cement. Once hemostasis had been achieved the scalp was sutured closed with 5-O sterile suture. The animals were given a single injection of Banamine (an analgesic) and returned to their home cage. Sham animals received only anesthesia, the bone opening, and the skin was incised and sutured. […] The animals then received various test factors, and the effects of these factors on the forelimb inhibition test and brain anatomy were assessed. […]

Row | Molecule | increase of the number of primary neurospheres that can be obtained from the brain (neural stem cells [1]; infusion into adult mice for six days) | increase in the number of NSCs (neural stem cells [1]; infusion into lateral ventricles of adult mice for six days) | number of BrdU positive cells (neural stem cells [2]) | delivery by subcutaneous administration to modulate the number of neural stem cells in the subventricular zone [3] | forepaw inhibition / motor function in the forelimb inhibition test [4] | doublecortin staining / doublecortin positive cells in the brain [5]
1 | B1 | about 25% | 20-25% | did not increase | – | – | –
2 | B2 | – | – | – | effectively delivered | improvement of motor functions; also recorded: acted to correct abnormal positioning of the forelimb during swimming; also recorded: recovery from a representative symptom of stroke; also recorded: improved the motor function | high degree of doublecortin staining
